# Experimental data reported in the nanobody polyreactivity screen of Harvey et al. (2022).
# Assay: yeast display, Sf9 membrane polyspecificity reagent, FACS + sequencing; frameworks hold sequencing errors
# In short: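 Polyreactivity labels are assigned by the sorting gate from which each nanobody was recovered. The gates were low and high (top ~1%), set on anti-HA fluorescence for expression and streptavidin fluorescence for reagent binding. Before sorting, galactose-induced (36–48 hours) yeast display cells were stained for 1 hour at 4 °C with 10% biotinylated, detergent-solubilized Sf9 membrane reagent.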
row,Sequence,polyreactivity (PSR sort gate)
1,QVQLVESGGGLVQAGGSLRLSCAASGFIFRYYAMGWYRQAPGKERELVAAITSGGASTYYADSVKGRFTISRDNAKNTVYLQMNSLKPEDTAVYYCAADTSSYSEYDYWGQGTQVTVSS,low polyreactivity
2,QVQLVESGGGLVQAGGSLRLSCAAYGRIFGVYAMGWYRPAPGKERELVAAIERRGGTTYYADSVKGRITISRDMAKNTVYLQLNSLKPEDTAVYYCATGSIAAGHYAYNYWGQGTQVTVSS,high polyreactivity
3,QVQLVESGGGLVQAGGSLRLSCAASGSTFGANAMGWYRQAPGKEREFVAAISGSGTTTYYADSVKGRFTISRDNAKNTVYLQINSLKPEDTAVYYCAKTRKAHWLEYWGQGTQVTVSS,low polyreactivity
4,QVQLVESGGGLVQAGGSLRLSCAASGFTFQWYAMGWYRQAPGKERELVAGITSGASTNYADSVKGRFTISRDNAKNTVYLQMNSLKPEDTAVYYCAARRWREGARYSYWGQGTQVTVSS,high polyreactivity
5,QVQLVESGGGLVQAGGSLRLSCAASGSTFDRYDMGWYRQAPGKERELVAAITRRGGSTYYADSVKGRFTISRDNAKNTVYLQMNSLKPEDTAVYYCNAKHFAYSVAHPYLRYGYDYWGQGTQVTVSS,low polyreactivity
6,QVQLVESGGGLVQAGGSLRLSCAASGRIFDSNAMGWYRQAPGKERELVATISYRGGRTYYADSVKGRFTISRDNAKNTVYLQMNSLKPEDTAVYYCAVRYWVSGFRAGYYWGQGTQVTVSS,high polyreactivity
7,QVQLVESGGGLVQAGGSLRLSCAASGLTFIPNAMGWYRQAPGKERELVAAISGTGGSTYYADSVKGRFTISRDNAKNTVYLQMNSLKPEDTAVYYCAARRRYKSGYWGQGTQVTVSS,high polyreactivity
8,QVQLVESGGGSVQAGGSLRLSCAASGSTFVANTMGWYRQAPGKERELVASITSGDSTNYADSVKGRFTISRDNAKNTVYLQMNSLKPEDTAVYYCAAESVWYYVGGQLIYYYWGQGTQVTVSS,low polyreactivity
9,QVQLVESGGGLVQAGGSLRLSCAASGSTFGRNAMGWYRQAPGKERELVAAISRSGGSTYYADSVKGRFTISRDNAKNTVYLQMNRLKPEDTAVYYCAAAVSPGGVYGNRYYYWGQGTQVTVSS,high polyreactivity
10,QVQLEESGGGLVQAGGSLRLSCAASGRIFPRYAMGWYRQAPGKERELVATISSGGSTYYADSVKGRFTISRDNATNTVYLQMNSLTPEDTAVYYCAARKRPYSVINGMDYWGQGTQVTVSS,low polyreactivity
11,QVQLVESGGGLVQAGGSLRLSCAASGSIFESYVMGWSRPAPGTEREMVAAISSGGSTYYADSVKGRFTISRDNAKNTVYLQMNSLKPEDTAVYYCAANYDGGYLDYEAGYRLEYDYWGQGTQVTVSS,low polyreactivity
12,QVQLVESGGGLVQAGGSLRLSCAASGSTFWNYAMGWYRQAPGKERELVASIDSSDGRTYYADSVKGRYTISRDNAKTTVYVQMNSLKPEDTAAYYCAKDAYAVELRPYSKLSSRAVGYWGQGTQVTVSS,low polyreactivity
13,QVQLVESGGGLVQAGGSLRLSCAASGLIFWYYTMGWYRQAPGKERELVAAITIGGSTYYADSVKGRFTISRDNAKNTVYLQMNSLKPEDTAVYYCNTRRGRSQGGRYEYDYWGQGTQVTVSS,low polyreactivity
14,QVQLVESGGRLVQAGGSLSLSCASSGRIFWTYAMGLTRQAPGEERELVAAINSSDGTYYADSVKGRFTISRDNAKNTVYLQKNSLKPEDTAVYYCNADRDALVGYDYDYWGQGTQVTVSS,low polyreactivity
15,QVQLVESGGGLVQAGGSLRLSCAASGRIFRIYGMGWYRQAPGKERELVADISIGGRTTYADSVKGRFTISRDNAKNTVYLQMNSLKPEDTAVYYCKTPYWYRIGQRLAWYDYWGQGTQVTVSS,low polyreactivity
16,QVQLIESGGGLVQAGGSLRLSCAASGLTFYSYAMGWYRQAPGKEREFVAVINWSGGRTYYADSVKGRFTISRDTAKNTVFLQMNSLKPEDTAVYYCAAVRYFASSRRYDYLGQGTQVTVSS,high polyreactivity
17,QVQLVESGGGLVQAGGSLRLSCAASGRTFLVYAMGWYRQAPGKERELVAAITWTGGTTYYADSVKGRFTISRDNAKNTVYLQMNSLKPEDTAVYYCNKRGSAWLVEEVDYWGQGTQVTVSS,low polyreactivity
18,QVQLVESGGGLVQAGGSLRLSCAASGRTFGRYAMGWSRQAPGKERELVATITSGGSTNYADSVKGRFTISRDNAKNTVYLQMNSLKPEDTAVYYCAAEFSPSRWAYSEGALRYNYWGQGTQVTVSS,low polyreactivity
19,QVQLVESGGGLVQAGGSLRLSCAASGSTFKYYVMGWYRQAPGKERELVAAISGRTGSTYYADSVKGRFTISRDNAKNTVYLQMNSLKPEDTAVYYCAKRGFLYWDHVSGFYRYDYWGQGTQVTVSS,low polyreactivity
20,QVQLVESGGGLVQAGGSLRLSCAASGRIFGGNAMGWYRQAPGKERELVAAITWGGSTNYADSVKGRFTISRDNAKNTVYLQMNRLKPEDTAVYYCNADPVRDTYWHPETQQWYGYWGQGTQVTVSS,low polyreactivity

row,Sequence,polyreactivity (PSR sort gate)
1,QVQLVESGVGLVQAGGSLRLSCAASGFIFHRYAMGWYRQAPGKERELVAGITSSGGSTYYADSVKGRFTISRDNAKNTVYLQMNSLKPEDTAVYYCNADSWLYRFFGYDYWGQGTQVTVSS,low polyreactivity
2,QVQLEESGGVLVQAGGSLRLSCAASGSIFDAYAMGWYRQAPGKDRELVADITVSAGRTYYADSVNGRFTISRDNAKNTVYLQMNSLKPEDTAVYYCAADSIVGDGYWSYYWGQGTQVTVSS,low polyreactivity
3,QVQLVESGGGLVQAGGSLRLSCAASGNTFGDNAMGWYRQAPGKERELDAAISTGGNTYYADSVKGRFTISRDNAKNSVYLQMNSLKPEDTAVYYCNAKWIPDTLFGIHETEGDYWGQGTQVTVSS,low polyreactivity
4,QVQLVESGGGLVQAGGSLRLSCAASGSIFFGYAMGWYRQAPGKEREFVAAITASGVRTYYADSVKGRFTISRDNAKNTVYLQMNSLKPEDTAVYYCAARIGTGVLPARGAKSHMDYWGQGTQVPVSS,low polyreactivity
5,QVQLVESGGGLVQAGGSLRLSCAASGSTFVYNAMGWDRQAPGKERELVAAITVSDGSTYYADSVKGRFTISRDNAKNTVYLHMKSLKPEDTAVFYCNADFPRKTRYEYWGQGTQVTVSS,low polyreactivity
6,QVKLEESGGGLVQAGGSLRLSCAASGSTFRAYTMGWYRQAPAKEREFVAAISRSGGSTFYADSVKGRFTISRDYAKNTVYLQMNSLKPEDNAVYYCAASYRYSASYYWGEGTQVTVSS,high polyreactivity
7,QVQLVESGGGLVQAGGSLRLSCAASGIIFGYYTMGWYRQAPGKERELVARITTGSSTNYADSVKGRFTISRDNAKNTVYLQMNSLKPEDTAVYYCAAVPIAADKANGYDYWGQGTQVTVSS,low polyreactivity
8,QVQLVVSGGGLVQAGGSLRLSCAASGRTFPRYAMGWYRQAPGKERELVASISRRGGSTYYADSVKGRFTISRDNAKNTVYLQMNSLKPEDTAVYYCNAQGYPYKQSTGDFWGQGTQVTVSS,high polyreactivity
9,QVQLVESGGGLVQAGGSLRLSCASSGSTFPYNAMGWYRQAPGKERELVAAITSSGRTNYADSVKGRFTISRDNAKNTVYLQMNSLKPEDTAVYYCAAGRWYAHRVDYWGQGTQVTVSS,low polyreactivity
10,QVQLVESGGGLVQAGGSLRLSCAASGRTFPHYAMGWYRQAPGKERELVAAISSSGGSTYYADSVKGRFTISRDNAKNTVYLQMNSLKPEDNAVYYCAARYVDDGWKYDYWGQGTQVTVSS,low polyreactivity
11,QVQLVDSGRGLVQAGGSLRLSCAASGGTFARNAMGWYRQAPGKERELVAAIRGGVSTNYADSVKGRFTISSDNAKNTVYLQMNSLKPEDTAVYYCNASPPTLEGYWGQGTQVTVSS,low polyreactivity
12,QVQLEESGGGLVQAGGSLRLTCAASGIIFRFYAMRCDRQAPGKERELVAVITSRSDSTYYADSVKGRFTISRDYAKNTVYLQMNSVKPEDTAVYYCNARYPWYYRYSTYDYWGQGTQVTVSS,high polyreactivity
13,QVQLVESGGGLVQAGGSLRLSCAASGLIFYINAMGWYRQAPGKERELVASITRTGSTNYADSVKGRFTISRDNAKNTVYLQMNSLKAEDTAVYYCAAYGPVYPHEYDYWGQGTQVTVSS,low polyreactivity
14,QVQLVESGGGLVQAGGSLRLSCAASGIIFLYYAMGWYRQAPGKERELVAAISRSGGRTFYADSVKGRFTISRDNAKNTVFLQMNSLKAEDTAVYYCAADALIYYKGSPDYYWGQGTQVTVSS,high polyreactivity
15,QVQLVESGGGLVQAGGSLRLSCAASGLTFWKNVMGWYRQAPGKERELVAAISWSGDSTYYADSVKGRFTISRDNAKNTVYLQMNSLKPEDTAVYYCAARYVSRYWAGRYPTRQRDSWGQGTQVTVSS,high polyreactivity
16,QVQLVESGGGLVQAGGSLRLSCAASGRIFRLYAMGWYRQAPGKERELVAAISKSGGSTYYADSVKGRFTISRDNAKNTVYLQMNSLKPEDTAVYYCAADYRTHGGYEGTFDYWGQGTQVTVSS,low polyreactivity
17,QVQLVESGRGLLQAGGSLRISCAASGFTFKGNAMGWYRQAPGKESELVAAITTSGGSTYYADSVKWRFTISRDNAKNTVYLQMNSLKPEDTAVYYCNAYFIYEGGWYYNAQYDYWGQGTQVTVSS,low polyreactivity
18,QVQLVESGGGLVQAGGSLRLSCGASGSTFWYYAMGWYRPAPGKERELVAAISSRGGSTYYADSVKGRFTISRDKAKNTVYFQLNSLKPEDTAVYYCAILGSYGGGQRRKYDSWGQGTQVTVSS,high polyreactivity
19,QVQLVESGGGLVQAGGSLRLSCAASGRTFGGYTMGWYRKAPGKERELVAAISKRGGSTYYADSVKGRFTISRDNAKNTVYLQMNSLKPEDTAVYYCARDVRTVIVSTGYDYWGQGTQVTVSS,high polyreactivity
20,QVQLVETGGGLVQAGGSLRLSCAASGSIFYVYAMGWYRQAPRKERELVAAINTSGGSTYADSVKGRFTISRDNAKNTDYLQMNSLKPEDTAVYYCAADGYYEYTWGEYDSWGQGTQVTVSS,low polyreactivity
